Experimental data: US20120172293A1 (Takeda / Millennium, published 2012)
Starred links: 1 amine or outer side, 2 acyl side, 3 side chain; linkers in the order of their positions; H or OH if unused. Non-standard residues stand in square brackets, D forms with d. No end group written: not given here. *: point of attachment. Tyr(Me) = O-methyltyrosine, COc1ccc(C[C@H](N[*:1])C(=O)[*:2])cc1; Thr(Me) = O-methylthreonine, CO[C@H](C)[C@H](N[*:1])C(=O)[*:2]; Ala(piperidin-4-yl) = O=C([C@H](CC1CCN([*:3])CC1)N[*:1])[*:2]; Phe(4-F) = N[C@@H](Cc1ccc(F)cc1)C(=O)O; 2Nal = N[C@@H](Cc1ccc2ccccc2c1)C(=O)O; Amidino = amidino group, N=C(N)*; Cha = N[C@@H](CC1CCCCC1)C(=O)O; 4Amb = NCc1ccc(C(=O)O)cc1; Nva = CCC[C@H](N)C(=O)O; 2Abz = Nc1ccccc1C(=O)O; Dap = NC[C@H](N)C(=O)O; Inp = O=C(O)C1CCNCC1; Bz = O=C(c1ccccc1)*

Key:
[1] = biological target: human Y2 receptor (human) (UniProt P49146); assay: cell-based or functional assay
[2] = biological target: human Y2 receptor (human) (UniProt P49146); assay: RBA: [125I]-PYY displacement, hY2R/CHO membranes
human Y2 receptor [3] = biological target: T1, human Y2 receptor (human, UniProt P49146 1-381); assay: cell-based or functional assay
T1 sequence (looked up): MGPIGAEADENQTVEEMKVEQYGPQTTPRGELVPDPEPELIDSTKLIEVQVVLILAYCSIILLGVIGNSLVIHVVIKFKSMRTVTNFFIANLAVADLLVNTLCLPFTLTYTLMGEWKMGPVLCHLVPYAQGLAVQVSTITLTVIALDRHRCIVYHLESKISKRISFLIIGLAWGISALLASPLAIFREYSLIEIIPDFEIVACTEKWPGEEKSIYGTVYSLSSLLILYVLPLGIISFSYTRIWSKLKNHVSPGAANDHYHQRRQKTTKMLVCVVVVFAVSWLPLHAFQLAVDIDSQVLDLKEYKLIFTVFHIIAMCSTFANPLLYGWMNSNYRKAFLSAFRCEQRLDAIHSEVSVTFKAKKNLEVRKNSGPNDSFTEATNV

human Y2 receptor [4] = biological target: T1, human Y2 receptor; assay: RBA: [125I]-PYY displacement, hY2R/CHO membranes
Procedure, shortened: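 Bound radioligand was collected by filtration on PEI-treated GF/C filters, washed with Tris/MgCl₂/NaCl/CHAPS buffer pH 7.4, and counted by scintillation; IC₅₀ values were calculated.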

“N-4-Pyridiniyl-[Pic(4)23, D-Pro24, Cha27,28,36, Aib31]-PYY(23-36) (peptide)” gave a GBA EC50 Ratio (vs PYY(3-36)), [35S]GTPγS [1] of 3.4 and an IC50 Ratio (vs PYY(3-36)) [2] of 4.

Molecule “Ac-[Ala26, Ile28,31, Arg(Me)35]-PYY(22-36) (peptide)” has a GBA EC50 Ratio (vs PYY(3-36)), [35S]GTPγS [1] of 13 and an IC50 Ratio (vs PYY(3-36)) [2] of 50.

Molecule “Ac-[Iva23, D-Pro24, Cha27,28,36, Aib31]-PYY(23-36) (peptide)” has a GBA EC50 Ratio (vs PYY(3-36)), [35S]GTPγS [1] of 17 and an IC50 Ratio (vs PYY(3-36)) [2] of 13.

“Ac-[Hyp23, D-Pro24, Cha27,28,36, Aib31]-PYY(23-36) (peptide)” gave a GBA EC50 Ratio (vs PYY(3-36)), [35S]GTPγS [1] of 5 and an IC50 Ratio (vs PYY(3-36)) [2] of 7.3.

For “Ac-[Lys(Me2)23, D-Pro24, Cha27,28,36, Aib31]-PYY(23-36) (peptide)”, the GBA EC50 Ratio (vs PYY(3-36)), [35S]GTPγS [1] was 1.3 and the IC50 Ratio (vs PYY(3-36)) [2] was 0.92.

Molecule “[(PEG2)23, D-Pro24, Cha27,28,36, Aib31]-PYY(23-36) (peptide)” has a GBA EC50 Ratio (vs PYY(3-36)), [35S]GTPγS [1] of 0.9 and an IC50 Ratio (vs PYY(3-36)) [2] of 0.9.

“Ac-[Aad23, D-Pro24, Cha27,28,36, Aib31]-PYY(23-36) (peptide)” showed a GBA EC50 Ratio (vs PYY(3-36)), [35S]GTPγS [1] of 1.2 and an IC50 Ratio (vs PYY(3-36)) [2] of 2.8.

B1: 4-Aminomethylbenzoyl-[Ala26, Ile28,31, Nal(2)30]-PYY(25-36) (peptide)
peptide: [4Amb]RAYIN[2Nal]ITRQRY-NH2
modifications: N-terminus assumed
SMILES: CC[C@H](C)[C@H](NC(=O)[C@H](Cc1ccc(O)cc1)NC(=O)[C@H](C)NC(=O)[C@H](CCCNC(=N)N)NC(=O)c1ccc(CN)cc1)C(=O)N[C@@H](CC(N)=O)C(=O)N[C@@H](Cc1ccc2ccccc2c1)C(=O)N[C@H](C(=O)N[C@H](C(=O)N[C@@H](CCCNC(=N)N)C(=O)N[C@@H](CCC(N)=O)C(=O)N[C@@H](CCCNC(=N)N)C(=O)N[C@@H](Cc1ccc(O)cc1)C(N)=O)[C@@H](C)O)[C@@H](C)CC
notes: also called compound No. 56
For B1, the “GBA EC50 Ratio (vs PYY(3-36)), [35S]GTPγS” value (shortened to “GBA EC50 Ratio”) (human Y2 receptor [3]) was 2.4 ratio and the “IC50 Ratio (vs PYY(3-36))” value (human Y2 receptor [4]) was 4.1 ratio.

B2: 4-Aminomethylbenzoyl-[Ala26, Ile28,31, Tyr(Me)36]-PYY(25-36) (peptide)
peptide: [4Amb]RAYINLITRQR[Tyr(Me)]-NH2
modifications: N-terminus assumed
SMILES: CC[C@H](C)[C@H](NC(=O)[C@H](Cc1ccc(O)cc1)NC(=O)[C@H](C)NC(=O)[C@H](CCCNC(=N)N)NC(=O)c1ccc(CN)cc1)C(=O)N[C@@H](CC(N)=O)C(=O)N[C@@H](CC(C)C)C(=O)N[C@H](C(=O)N[C@H](C(=O)N[C@@H](CCCNC(=N)N)C(=O)N[C@@H](CCC(N)=O)C(=O)N[C@@H](CCCNC(=N)N)C(=O)N[C@@H](Cc1ccc(OC)cc1)C(N)=O)[C@@H](C)O)[C@@H](C)CC
notes: also called compound No. 7
In the case of B2, the “GBA EC50 Ratio” value (human Y2 receptor [3]) is reported as 4.7 ratio and the “IC50 Ratio (vs PYY(3-36))” value (human Y2 receptor [4]) is reported as 5 ratio.

With Ac-YYASLRAYINLITRQRY-NH2 (also called compound No. 5) [Ac-[Ala26, Ile28,31]-PYY(20-36)] the “GBA EC50 Ratio” value (human Y2 receptor [3]) was 8.1 ratio and the “IC50 Ratio (vs PYY(3-36))” value (human Y2 receptor [4]) was 9.8 ratio.

B3: 4-Aminomethylbenzoyl-[Ala26, Ile28,31, Nva32]-PYY(25-36) (peptide)
peptide: [4Amb]RAYINLI[Nva]RQRY-NH2
modifications: N-terminus assumed
SMILES: CCC[C@H](NC(=O)[C@@H](NC(=O)[C@H](CC(C)C)NC(=O)[C@H](CC(N)=O)NC(=O)[C@@H](NC(=O)[C@H](Cc1ccc(O)cc1)NC(=O)[C@H](C)NC(=O)[C@H](CCCNC(=N)N)NC(=O)c1ccc(CN)cc1)[C@@H](C)CC)[C@@H](C)CC)C(=O)N[C@@H](CCCNC(=N)N)C(=O)N[C@@H](CCC(N)=O)C(=O)N[C@@H](CCCNC(=N)N)C(=O)N[C@@H](Cc1ccc(O)cc1)C(N)=O
notes: also called compound No. 61
B3 was tested, and the “GBA EC50 Ratio” value (human Y2 receptor [3]) was 17 ratio and the “IC50 Ratio (vs PYY(3-36))” value (human Y2 receptor [4]) was 29 ratio.

B4: Benzoyl-[Ala(4Pip)27, Ile28,31, Trp30, Cha36]-PYY(25-36) (peptide)
peptide: Bz-RH[Ala(piperidin-4-yl)]INWITRQR[Cha]-NH2
modifications: also: Ala(4Pip) D or L form not assigned (later peak)
notes: Ala(4Pip) is any of D-form and L-form; also called compound No. 66
B4 was tested, and the “GBA EC50 Ratio” value (human Y2 receptor [3]) was 2.9 ratio and the “IC50 Ratio (vs PYY(3-36))” value (human Y2 receptor [4]) was 4.8 ratio.

Bz-RAYINLI[Thr(Me)]RQRY-NH2 (also called compound No. 74) [4-Aminomethylbenzoyl-[Ala26, Ile28,31, Thr(Me)32]-PYY(25-36)] was tested, and the “GBA EC50 Ratio” value (human Y2 receptor [3]) was 24 ratio and the “IC50 Ratio (vs PYY(3-36))” value (human Y2 receptor [4]) was 14 ratio.

B5: Benzoyl-[Cha27,36, Ile28, Arg31]-PYY(25-36) (peptide)
peptide: Bz-RH[Cha]INLRTRQR[Cha]-NH2
SMILES: CC[C@H](C)[C@H](NC(=O)[C@H](CC1CCCCC1)NC(=O)[C@H](Cc1c[nH]cn1)NC(=O)[C@H](CCCNC(=N)N)NC(=O)c1ccccc1)C(=O)N[C@@H](CC(N)=O)C(=O)N[C@@H](CC(C)C)C(=O)N[C@@H](CCCNC(=N)N)C(=O)N[C@H](C(=O)N[C@@H](CCCNC(=N)N)C(=O)N[C@@H](CCC(N)=O)C(=O)N[C@@H](CCCNC(=N)N)C(=O)N[C@@H](CC1CCCCC1)C(N)=O)[C@@H](C)O
notes: also called compound No. 65
B5 was tested, and the “GBA EC50 Ratio” value (human Y2 receptor [3]) was 16 ratio and the “IC50 Ratio (vs PYY(3-36))” value (human Y2 receptor [4]) was 15 ratio.

B6: [Abz(2)24, Cha27,36, Ile28,31, Trp30]-PYY(24-36) (peptide)
peptide: [2Abz]RH[Cha]INWITRQR[Cha]-NH2
modifications: N-terminus assumed
SMILES: CC[C@H](C)[C@H](NC(=O)[C@H](CC1CCCCC1)NC(=O)[C@H](Cc1c[nH]cn1)NC(=O)[C@H](CCCNC(=N)N)NC(=O)c1ccccc1N)C(=O)N[C@@H](CC(N)=O)C(=O)N[C@@H](Cc1c[nH]c2ccccc12)C(=O)N[C@H](C(=O)N[C@H](C(=O)N[C@@H](CCCNC(=N)N)C(=O)N[C@@H](CCC(N)=O)C(=O)N[C@@H](CCCNC(=N)N)C(=O)N[C@@H](CC1CCCCC1)C(N)=O)[C@@H](C)O)[C@@H](C)CC
notes: also called compound No. 68
For B6, the “GBA EC50 Ratio” value (human Y2 receptor [3]) was 15 ratio and the “IC50 Ratio (vs PYY(3-36))” value (human Y2 receptor [4]) was 19 ratio.

B7: Benzoyl-[Dap27, Ile28,31, Trp30, Cha36]-PYY(25-36) (peptide)
peptide: Bz-RH[Dap]INWITRQR[Cha]-NH2
SMILES: CC[C@H](C)[C@H](NC(=O)[C@H](CN)NC(=O)[C@H](Cc1c[nH]cn1)NC(=O)[C@H](CCCNC(=N)N)NC(=O)c1ccccc1)C(=O)N[C@@H](CC(N)=O)C(=O)N[C@@H](Cc1c[nH]c2ccccc12)C(=O)N[C@H](C(=O)N[C@H](C(=O)N[C@@H](CCCNC(=N)N)C(=O)N[C@@H](CCC(N)=O)C(=O)N[C@@H](CCCNC(=N)N)C(=O)N[C@@H](CC1CCCCC1)C(N)=O)[C@@H](C)O)[C@@H](C)CC
notes: also called compound No. 67
In the case of B7, the “GBA EC50 Ratio” value (human Y2 receptor [3]) is reported as 22 ratio and the “IC50 Ratio (vs PYY(3-36))” value (human Y2 receptor [4]) is reported as 34 ratio.

B8: 4-Aminomethylbenzoyl-[Ala26, Ile28,31, Phe(4F)30]-PYY(25-36) (peptide)
peptide: [4Amb]RAYIN[Phe(4-F)]ITRQRY-NH2
modifications: N-terminus assumed
SMILES: CC[C@H](C)[C@H](NC(=O)[C@H](Cc1ccc(O)cc1)NC(=O)[C@H](C)NC(=O)[C@H](CCCNC(=N)N)NC(=O)c1ccc(CN)cc1)C(=O)N[C@@H](CC(N)=O)C(=O)N[C@@H](Cc1ccc(F)cc1)C(=O)N[C@H](C(=O)N[C@H](C(=O)N[C@@H](CCCNC(=N)N)C(=O)N[C@@H](CCC(N)=O)C(=O)N[C@@H](CCCNC(=N)N)C(=O)N[C@@H](Cc1ccc(O)cc1)C(N)=O)[C@@H](C)O)[C@@H](C)CC
notes: also called compound No. 58
In the case of B8, the “GBA EC50 Ratio” value (human Y2 receptor [3]) is reported as 2.9 ratio and the “IC50 Ratio (vs PYY(3-36))” value (human Y2 receptor [4]) is reported as 4.1 ratio.

B9: Amidino-[Gly23, Pic(4)24, Cha27,36, Ile 28,31, Trp30]-PYY(23-36) (peptide)
peptide: Amidino-G[Inp]RH[Cha]INWITRQR[Cha]-NH2
SMILES: CC[C@H](C)[C@H](NC(=O)[C@H](CC1CCCCC1)NC(=O)[C@H](Cc1c[nH]cn1)NC(=O)[C@H](CCCNC(=N)N)NC(=O)C1CCN(C(=O)CNC(=N)N)CC1)C(=O)N[C@@H](CC(N)=O)C(=O)N[C@@H](Cc1c[nH]c2ccccc12)C(=O)N[C@H](C(=O)N[C@H](C(=O)N[C@@H](CCCNC(=N)N)C(=O)N[C@@H](CCC(N)=O)C(=O)N[C@@H](CCCNC(=N)N)C(=O)N[C@@H](CC1CCCCC1)C(N)=O)[C@@H](C)O)[C@@H](C)CC
notes: also called compound No. 96
In the case of B9, the “GBA EC50 Ratio” value (human Y2 receptor [3]) is reported as 1.1 ratio and the “IC50 Ratio (vs PYY(3-36))” value (human Y2 receptor [4]) is reported as 1.9 ratio.
